From the RNAGym collection of RNA variant scans (doi:10.1073/pnas.2313332121)
This sample holds only a part of the variants without activity.

B1: TPR 5TU (parent)
chain: GGAUCUUCUCGAUCUAACAAAAAAGACAAAUCUGCCACAAAGCUUGAGAGCAUCUUCGGAUGCAGAGGCGGCAGCCUUCGGUGGCGCGAUAGCGCCAACGUUCUCAACUAUGACACGCAAAACGCGUGCUCCGUUGAAUGGAGUUUAUCAUG

Variants of: B1
Test: polymerase ribozyme fitness, log enrichment relative to wild type (log ratio); higher = more active; in vitro selection for triplet polymerase activity
How it was run: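 To select mutant libraries of each subunit of a heterodimeric triplet polymerase ribozyme, built by PCR and transcribed, each was annealed with a biotinylated primer, partner subunit and triplets, then incubated frozen at −7 °C. Extended constructs were gel-excised, captured on streptavidin beads and amplified by RT-PCR, in one round carried out in triplicate. Illumina sequencing of input and output libraries kept genotypes with ≥10 input reads and ≥1 read per output. Fitness is the base-2 logarithm of genotype enrichment relative to wild-type enrichment, from inverse-variance-weighted replicate averages.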

| Variant | polymerase ribozyme fitness (log ratio) |
| --- | --- |
| U55G C76A G92A C108U | ≤ -4.2 |
| C54U C85U C116A | 0.743 |
| C54U U56A C93U G133U | -4.06 |
| U55A C76G U134G | ≤ -4.2 |
| U55G G84C A107G A142C | ≤ -4.2 |
| U55A U90A G100C C118U | ≤ -4.2 |
| U55G U82A G84U U102C | -3.21 |
| C54A C95A | -1.25 |
| U55G A73G | -0.595 |
| U55G G88U G94A G124A C125G G126A A142U | ≤ -4.2 |
| U55A G92U C96A G117A A121U | -1.48 |
| U55G G83U C85U A89U C95A | -3.88 |
| C54G U56G G92A | ≤ -4.2 |
| U53A G84A G94A C103U C114U G126C | ≤ -4.2 |
| C54U C76U C87U U127A U139C A142U C149G | ≤ -4.2 |
| C54G U55A G84A | -1.93 |
| U53A G86U | -2.14 |
| U53A G86C | -3.25 |
| C54G G86A C129G | -3.8 |
| U55G U104A A122G A137C | ≤ -4.2 |
| U55G A73U U146C | -1.74 |
| U53A U102G G133U U144G | ≤ -4.2 |
| U55G G94A A98U | -0.256 |
| C54G C103U | -2.16 |

| Variant | polymerase ribozyme fitness (log ratio) |
| --- | --- |
| C54A A89G | -2.13 |
| U55A C76G C93U C103G G143A A150U | ≤ -4.2 |
| C54G G80C A89G C93A | ≤ -4.2 |
| U55A G83U C85A U101C C116A | ≤ -4.2 |
| C54U C72U U135C | -3.15 |
| C54A A91U C108U G124U A138C G141A | ≤ -4.2 |
| U55C C95A C96G G117C | -2.16 |
| C54A U77A C96G U127G | ≤ -4.2 |
| U55A G128C U146A | -4.09 |
| C54U U55A C87A | ≤ -4.2 |
| U55G C125G U151G | ≤ -4.2 |
| U55G C96U | -0.6 |
| U55C C85A A119G A137U | ≤ -4.2 |
| C54G C87U G143C | -3.99 |
| U53G A150U | -1.34 |
| U55A A73G U135A U146C | -0.581 |
| U53A U55G A64U C75U A91C C116U U144A | ≤ -4.2 |
| U55A A64G | -3.3 |
| U53C U55C C105U | -1.88 |
| U55C A91U U144A | ≤ -4.2 |
| U55C G124C | -1.14 |
| U55A C76G C85A A113U G128A | ≤ -4.2 |
| U55C U82G C95U | -0.677 |
| C54G C87G C99G | ≤ -4.2 |

| Variant | polymerase ribozyme fitness (log ratio) |
| --- | --- |
| C54G G84C U109C U134G U148A | ≤ -4.2 |
| C54U U82A | -0.0444 |
| C54U G80U | -0.459 |
| U55C G59C A107C C131U U134G G136C | ≤ -4.2 |
| U56A A106C U109G C114U C118A | ≤ -4.2 |
| C54A G71A G88C A110G | ≤ -4.2 |
| U55G C85G G88U G92U C108U | ≤ -4.2 |
| U55A A119G | -1.38 |
| C54U C85U G136U | -2.08 |
| U53C G94A A97G | -2.46 |
| U53A G86C A91U G136A | ≤ -4.2 |
| C54U A97G C99G U135G | -3.75 |
| U53A U78A C85U U102C | ≤ -4.2 |
| C54A U90G | ≤ -4.2 |
| U53C U139G | 0.0757 |
| C54U A97U A107C | ≤ -4.2 |
| C54U C75U | -0.0882 |
| U55G U56A C57G C76A C93A | -3.7 |
| U56A A89C | -0.735 |
| U55A G83A C105G C118A | -3.78 |
| C54U U56A A60G G84U G126U | -1.81 |
| C54U C118U U145A | -0.457 |
| C54A G84C | -2.93 |
| U55G C85U A91G G94A | -3.29 |

| Variant | polymerase ribozyme fitness (log ratio) |
| --- | --- |
| C54G C57A G58C G94A | -0.504 |
| U55G C69U G71U G128A | ≤ -4.2 |
| C54U G86U A150U | -0.319 |
| U55G C131A | -2.39 |
| C54U G126U | 0.161 |
| U55A C85A C93G | ≤ -4.2 |
| C54A C116U G143U | -3.09 |
| U55A G71A G80C | ≤ -4.2 |
| U55A A119G U148G | -3.77 |
| U55A A66U A98G A122U A150C | ≤ -4.2 |
| U55G C57A G59C C85A A115G A119U | -2.01 |
| U55A C118G A147U | 0.0992 |
| U55G U90G C123G U134A | ≤ -4.2 |
| C54U U55A A120G G143U | -2.38 |
| U53G A91G | -3.94 |
| U53A U61G C99U G136A | -3.67 |
| U55A U61G | -3.71 |
| C54U U55G G80U A91G A98C | -3.9 |
| C54U G59A A106G | 0.342 |
| U55A C57A C93U G126U | -0.627 |
| U53A U78C U134G | -2.35 |
| U55A G83U A137G | -2.28 |
| C54G C87U A122G U145C | -1.82 |
| C54G C96U A142C | -3.34 |

| Variant | polymerase ribozyme fitness (log ratio) |
| --- | --- |
| C54U U56A G70A C85A G86U C95G | ≤ -4.2 |
| U53G U56A A89G G94A A121G G141U G143A | ≤ -4.2 |
| C54U U55G U56A C69U A73C A115U | ≤ -4.2 |
| C54G G58A U78G C108A G126U | ≤ -4.2 |
| C54U U55A C93U | -0.48 |
| U55A U127A A142U | ≤ -4.2 |
| U55C U144C | 0.187 |
| U55A G62C G117A C131G | ≤ -4.2 |
| C54A G83A C99U | -3.7 |
| U55G G86U C95U | -0.739 |
| U55G G58C U144G | -0.023 |
| U55A A97G | -0.39 |
| C54A G58U C99A U145A | -2.04 |
| U55A G92U G124C | -0.918 |
| U55G C87A | -4.1 |
| U55A G65U G70U C87A C95U A98G A137C G141A G143C | ≤ -4.2 |
| C54A C123G | -1.63 |
| C54A C123U | -0.754 |
| U55C G88A C96U | ≤ -4.2 |
| U55A G86A | -1.59 |
| U55A G86U | -1.44 |
| C54U G68A A97G G124A U144C | -3.84 |
| C54G G141A | -1.35 |
| C54A U56A C118U | -2.14 |

| Variant | polymerase ribozyme fitness (log ratio) |
| --- | --- |
| C54A U61A A73G U77G G100A | ≤ -4.2 |
| C54U C93A | -2.6 |
| C54A G86U C105U | -2.87 |
| C54G C105U | -1.24 |
| U55G C79G | -3.78 |
| U53C C95U C125U A147U U148A U151G | ≤ -4.2 |
| C54A G86A | -3.13 |
| U55G G74A C85U A110G | ≤ -4.2 |
| C54U C85U A98G U134A | -3.35 |
| C54A C57G A60U C87U C95U G136A | -4.11 |
| U55G C103A | -2.99 |
| U56A A73U C76A A97U | ≤ -4.2 |
| U55A G59C | 0.269 |
| C54U A142U | -0.665 |
| U53G U55G C75U C76U G83A U135A | ≤ -4.2 |
| U53A G143U | -3.09 |
| C54U G83A A147U | -0.818 |
| U55A C96U | -0.113 |
| U55A C85G | -2.99 |
| U55A C85A | -2.26 |
| U55A A98U U111C | -4.16 |
| C54U G141A | -0.888 |
| U53A U55A C129U | -3.06 |
| U53G G59C A147C | -0.875 |

| Variant | polymerase ribozyme fitness (log ratio) |
| --- | --- |
| U53G G94A | -4.1 |
| C54A C132U | -2.3 |
| U53A U56A C105U | -1.66 |
| C54A U82A U134A U146C | -3.03 |
| U55A U82G G92A C103U G124A | -3.62 |
| U55C C57A A73G C96U A121C C131U | 1.56 |
| C54A C85U C125G | -1.96 |
| C54A C85G | -3 |
| U55A A91U C108A U130C G133U | ≤ -4.2 |
| C54A G81A | -1.07 |
| U55G C96U C105U G143A | -0.651 |
| C54A G70U A91U C114U A119U A120U | ≤ -4.2 |
| U56A A60G C79G A119C A121U | -3.78 |
| U53A G141A | -1.9 |
| U55A G59A U61C U135C A142G | -3.84 |
| U55A C87U A137C | -3.92 |
| U53C A122G | -0.671 |
| U53A G84A C87U A106G | -3.23 |
| U55A C63U C85U C103A G136A A147U | -0.434 |
| U55C C57G | 0.125 |
| U53A G86U A142U | ≤ -4.2 |
| C54G A66U A137G | ≤ -4.2 |
| U55A G81A C87U G136A | 0.0612 |
